Experiment [1] has as its target prothymosin α (unlabeled, wildtype) (human) (UniProt P06454). In words: NMR titration.
The target in experiment [2] is ProTα labeled at positions 56 and 110 (FRET-labeled prothymosin α) (human) (UniProt P06454). Briefly: FRET or BRET.
For experiment [3] the target is unchanged. In words: stopped-flow FRET kinetics.

A value given as a limit tells only on which side of the number the result lay.

Sequence of linker histone H1.0 (P07305 whole entry): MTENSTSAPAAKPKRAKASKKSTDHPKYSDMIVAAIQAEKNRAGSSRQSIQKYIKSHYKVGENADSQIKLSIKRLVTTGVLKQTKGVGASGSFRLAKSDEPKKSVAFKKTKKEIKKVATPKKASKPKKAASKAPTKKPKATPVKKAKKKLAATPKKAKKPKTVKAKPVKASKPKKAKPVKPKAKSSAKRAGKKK

Broadly, the stoichiometry N is the number of molecules, sites or subunits per partner or assembly. For orientation: Kd means the constant that tells how readily two partners part at equilibrium. Read a high Kd as weaker binding. On to “globular domain of H1 (domain or fragment)”, for which the stoichiometry N in experiment [1] is > 4. In addition, the Kd in experiment [2] stood at 1900 nM.

The term koff denotes the first-order rate constant of dissociation. In experiment [3], “linker histone H1.0 (from UniProt P07305 1-194) (natural protein)” yielded a koff of 0.0065 s⁻¹.

For the origin of these results see PMC6264893.
